The source of these data is US20190300611A1 (ARCH ONCOLOGY, published 2019).

B1: VLX4 IgG4 S228P (xi) (antibody)
heavy: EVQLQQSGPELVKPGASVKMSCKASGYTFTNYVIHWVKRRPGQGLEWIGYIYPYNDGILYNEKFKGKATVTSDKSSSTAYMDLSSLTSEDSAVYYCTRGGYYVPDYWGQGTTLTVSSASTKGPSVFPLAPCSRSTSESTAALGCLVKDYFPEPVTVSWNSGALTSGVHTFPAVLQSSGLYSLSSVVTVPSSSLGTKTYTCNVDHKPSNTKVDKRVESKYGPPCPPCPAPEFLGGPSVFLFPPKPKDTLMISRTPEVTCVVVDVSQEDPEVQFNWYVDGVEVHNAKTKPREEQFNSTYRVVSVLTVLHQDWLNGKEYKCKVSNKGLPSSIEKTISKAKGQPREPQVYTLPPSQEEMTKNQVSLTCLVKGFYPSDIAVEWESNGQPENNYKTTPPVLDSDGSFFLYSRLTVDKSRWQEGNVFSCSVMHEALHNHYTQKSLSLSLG
light: DVLMTQTPLSLPVNLGDQASISCRSRQSIVHTNGNTYLGWFLQKPGQSPKLLIYKVSNRFSGVPDRFSGSGSGTDFTLTISRVEAEDLGVYYCFQGSHVPYTFGGGTKLEIKRTVAAPSVFIFPPSDEQLKSGTASVVCLLNNFYPREAKVQWKVDNALQSGNSQESVTEQDSKDSTYSLSSTLTLSKADYEKHKVYACEVTHQGLSSPVTKSFNRGEC
B2: VLX4 IgG2 (xi) (antibody)
heavy: EVQLQQSGPELVKPGASVKMSCKASGYTFTNYVIHWVKRRPGQGLEWIGYIYPYNDGILYNEKFKGKATVTSDKSSSTAYMDLSSLTSEDSAVYYCTRGGYYVPDYWGQGTTLTVSSASTKGPSVFPLAPCSRSTSESTAALGCLVKDYFPEPVTVSWNSGALTSGVHTFPAVLQSSGLYSLSSVVTVPSSNFGTQTYTCNVDHKPSNTKVDKTVERKCCVECPPCPAPPVAGPSVFLFPPKPKDTLMISRTPEVTCVVVDVSHEDPEVQFNWYVDGVEVHNAKTKPREEQFNSTFRVVSVLTVVHQDWLNGKEYKCKVSNKGLPAPIEKTISKTKGQPREPQVYTLPPSREEMTKNQVSLTCLVKGFYPSDIAVEWESNGQPENNYKTTPPMLDSDGSFFLYSKLTVDKSRWQQGNVFSCSVMHEALHNHYTQKSLSLSPGK
light: B1 light
B3: VLX4 IgG4 PE(xi) (antibody)
heavy: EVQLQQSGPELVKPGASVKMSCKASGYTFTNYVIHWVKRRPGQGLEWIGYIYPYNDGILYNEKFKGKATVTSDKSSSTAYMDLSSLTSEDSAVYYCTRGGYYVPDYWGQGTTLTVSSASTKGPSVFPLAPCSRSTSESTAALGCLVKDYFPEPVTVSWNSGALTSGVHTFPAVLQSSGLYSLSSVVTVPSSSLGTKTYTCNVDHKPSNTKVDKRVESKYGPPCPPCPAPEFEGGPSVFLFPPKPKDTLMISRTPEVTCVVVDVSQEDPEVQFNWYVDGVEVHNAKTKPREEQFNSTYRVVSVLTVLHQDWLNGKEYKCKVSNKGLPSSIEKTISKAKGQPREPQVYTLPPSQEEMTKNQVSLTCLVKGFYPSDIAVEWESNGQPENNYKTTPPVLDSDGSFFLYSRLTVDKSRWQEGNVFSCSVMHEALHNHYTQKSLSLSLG
light: B1 light
notes: Murine-human chimera; also called VLX4 IgG4PE chimeric mAb

T1 sequence (Q08722 other isoform, or with tags, fused parts or gaps limits assumed): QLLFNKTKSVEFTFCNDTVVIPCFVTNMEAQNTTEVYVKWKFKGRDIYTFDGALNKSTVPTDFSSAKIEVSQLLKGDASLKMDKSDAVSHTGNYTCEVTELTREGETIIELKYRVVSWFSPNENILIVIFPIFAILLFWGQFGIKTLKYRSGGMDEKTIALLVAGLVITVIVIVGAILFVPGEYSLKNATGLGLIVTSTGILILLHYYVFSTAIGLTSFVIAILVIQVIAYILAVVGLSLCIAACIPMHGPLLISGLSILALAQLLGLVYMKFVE

The first assay addresses T1, human CD47 (human, UniProt Q08722 19-292).
T1 construct: On the surface of OV10 cells transfected with human CD47, fresh human RBCs, Jurkat T cells or human breast cancer tissue; also called hCD47; integrin-associated protein (IAP)
The assay can be described thus: cell-based ELISA on OV10 hCD47 cells. As for the experimental part: Binding activities of VLX4, VLX8, and VLX9 chimeric (murine-human) and humanized mAbs were determined using a cell-based ELISA assay with human OV10 hCD47 cells expressing cell surface human CD47. OV10 hCD47 cells were grown in IMDM medium containing 10% heat inactivated fetal bovine serum (BioWest; S01520). One day before assay, 3×10⁴ cells were plated in 96 well cell bind plates (Corning #3300, VWR #66025-626) and were 95-100% confluent at the time of assay. Cells were washed and various concentrations of purified antibodies added in IMDM 37° C. for 1 hr in […]. Cells were then washed with media and incubated for an additional hour at 37° C. with HRP labeled secondary anti-human antibody (Promega) diluted 1/2500 in media. Cells were washed three times with PBS, and the peroxidase substrate 3,3′, 5,5′-tetramethylbenzidine is added (Sigma; Catalog #T4444). Reactions were terminated by the addition of HCl to 0.7N, and absorbance at 450 nm is determined using a Tecan model Infinite M200 plate reader. The apparent binding affinities of these clones to human OV10 hCD47 cells was determined by non-linear fit (Prism GraphPad software).
Background: An ELISA detects its analyte on a solid surface through an enzyme-linked reagent.
A word on the Kd: it is the free concentration of one partner at which half of the binding sites on the other are occupied at equilibrium, for simple one-to-one binding. A higher Kd goes with weaker binding. With B1, the Kd is 0.214 nM.
The same measure, in the same setting: under B2 stands 0.431 nM.
Still for that read-out and setting: under B3 stands 0.225 nM.

A further assay has as its target T1, human CD47. The assay can be described thus: flow cytometry on human RBCs. The method, then: Binding activities of chimeric (murine-human) and humanized VLX4, VLX8, and VLX9 mAbs to human CD47 on hRBCs were also determined using flow cytometry. hRBCs were incubated for 60 min on at 37° C. with various concentrations of the chimeric or humanized antibodies in a solution of phosphate buffered saline, pH 7.2, 2.5 mM EDTA (PBS+E). Cells were then washed with cold PBS+E, and incubated for an additional hour on ice with FITC labeled donkey anti-human antibody (Jackson Immuno Research Labs, West Grove, Pa.; Catalogue #709-096-149) in PBS+E. Cells were washed with PBS+E, antibody binding analyzed using a C6 Accuri Flow Cytometer (Becton Dickinson) and apparent binding affinities determined by non-linear fit (Prism GraphPad software) of the median fluorescence intensities at the various antibody concentrations.
On the technique in general: A flow cytometer gives signals particle by particle.
Take B1: the affinity, expressed as Kd, was 0.099 nM. That is a picomolar value.
The same measure, in the same setting: under B2 stands 0.184 nM; under B3, 0.303 nM.
